Measured values: patent US20120135912A1 (PERSEID THERAPEUTICS, published 2012)
Residue numbers refer to the chain shown, from its start.

Assays:
[1] = biological target: T1, human VLA4-Fc (alpha4-Fc/beta1-Fc heterodimer) (human); test: SPR (BIACORE), VLA4-Fc captured by anti-human IgG, 1 mM MnCl2, 1:1 Langmuir
T1 construct: Soluble heterodimer from CHO cells, Protein A purified; also called VLA-Fc
Experimental: (§1) The kinetic 2D-VCAM-1 assay measures binding kinetics of a dimeric ligand (e.g., VLA-Fc fusion protein or LPAM-1-Fc fusion protein) coated to sensor chips and monomeric analyte (e.g., 2D-VCAM-1 variant polypeptides) in the mobile phase. Goat anti-human IgG antibody (Jackson ImmunoResearch, Catalog No. 105-005-098) was immobilized on CM-5 sensor chips (GE Healthcare, Catalog No. BR-1000-14) according to the manufacturer's protocol. Antibody was diluted to 30 μg/ml in immobilization buffer (10 mM sodium acetate, pH 5.0 (GE Healthcare, Catalog No. BR-1003-51)). […] Un-reacted sites were quenched with 35 μl of 1 M ethanolamine-HCl pH 8.5 (GE Healthcare, Catalog No. BR-1000-50). This procedure typically yielded 15,000 response units (RU) of coupled antibody. VLA4-Fc or LPAM-1-Fc, prepared as described in Examples 3 and 4, respectively, were bound to antibody-coated sensor chips by injection of 20 μl of ligand solution (20 μg/ml protein in HBS-P-Mn buffer at a flow rate of 10 μl/min). Ligand capture levels were typically 200-300 RU. 2D-VCAM-1 variant polypeptides were diluted in HBS-P-Mn and flowed over ligand-coated sensor chips for 2 min at 30 μl/min, followed by 5 min incubation with in HBS-P-Mn containing no protein at the same flow rate. For 2D-VCAM-1 variant polypeptides having very slow dissociation rates from VLA4-Fc or LPAM-1-Fc, kinetic assays were also conducted using longer dissociation times (e.g., 20 min). Rmax signal levels for 2D-VCAM-1 variant polypeptides ranged from approximately 5-25 RU. Regeneration between cycles was performed by 200 sec incubation with 10 mM glycine buffer (pH 1.7) at 50 μl/min. New chips were subjected to 4-5 cycles of capture/binding/regeneration prior to use in actual experiments. Data from a reference cell containing goat anti-human IgG capture antibody alone was subtracted from data obtained from flow cells containing captured VLA4-Fc or LPAM-1-Fc. Typically, 8 dilutions of 2D-VCAM-1 variant polypeptides ranging from 150 nM to 0.069 nM were analyzed against a blank reference (HBS-P-Mn buffer alone).

[2] = biological target: T2, human LPAM-1-Fc (alpha4-Fc/beta7-Fc heterodimer) (human); test: SPR (BIACORE), LPAM-1-Fc captured by anti-human IgG, 1 mM MnCl2, 1:1 Langmuir
T2 construct: Soluble heterodimer from CHO cells, Protein A purified
Experimental: as §1

[3] = biological target: T1, human VLA4-Fc (alpha4-Fc/beta1-Fc …); test: ELISA, VLA4-Fc coated, 1 mM MnCl2; from EC50 values
Experimental: The relative binding affinities of various 2D-VCAM-1 variants to immobilized VLA4-Fc (α4-β1-Fc) heterodimer, relative to a control protein (e.g., Q38L-2D-VCAM-1 or to human 2D-VCAM-1), were deter using a solid-phase ELISA assay. MAXISORP™ ELISA plates (NUNC) were coated overnight at 4° C. with 50 ul VLA4-Fc heterodimer, 2 ug/ml in TBS-M (TBS (25 mM Tris-HCl pH 7.5, 150 mM NaCl) with 1 mM MnCl2), washed with TBS-T (TBS with 0.05% TWEEN-20), blocked with 200 ul 3% milk in TBS-M for 1 h at room temperature, and washed again with TBS-T. A four-fold dilution series of the purified 2D-VCAM variants to be assayed was made in COSTAR U-bottom plates in TBS-TMC (TBS with 0.05% Tween-20, 1 mM MnCl2, and 1% casein; Sigma) with a starting concentration of 8.2 uM (200 ug/ml). The dilution series was transferred into the ELISA plate which was incubated at room temperature for 2 h and subsequently washed with TBS-T. Bound 2D-VCAM protein was detected by incubation with 0.5 ug/ml of biotinylated anti-human VCAM antibody (R&D Systems, Catalog No. BAF809) in TBS-TMC for 1 h at room temperature followed by a TBS-MT (TBS plus 1 mM MnCl2 and 0.02% TWEEN-20) wash and subsequent incubation with 1:2000 dilution of streptavidin-HRP (BD Biosciences, Catalog No. 554066) in TBS-TMC for 30 min at room temperature. […] Typical development times ranged from […] and development was stopped by addition of 50 ul 2M H₂SO₄ (EM, Catalog No. SX1244-75). […] Fold-improvement in binding was calculated relative to a control protein (e.g., Q38L-2D-VCAM-1 or human 2D-VCAM-1) assayed on the same plate.

[4] = biological target: T2, human LPAM-1-Fc (alpha4-Fc/beta7-Fc …); test: ELISA, LPAM-1-Fc coated, 1 mM MnCl2; from EC50 values
Experimental: The relative binding affinities of various 2D-VCAM variant proteins to immobilized LPAM-1-Fc (α4-Fc/β-7-Fc) heterodimer, relative to a control protein (e.g., Q38L-2D-VCAM-1 or human 2D-VCAM-1), were determined using a solid-phase ELISA assay. MAXISORP™ ELISA plates (NUNC) were coated overnight at 4° C. with 50 ul LPAM-1-Fc heterodimer (2 ug/ml in TBS-M, TBS (25 mM TRIS-HCl pH 7.5, 150 mM NaCl with 1 mM MnCl2), washed with TBS-T (TBS with 0.05% Tween-20), blocked with 200 ul 3% milk in TBS-M for 1 hr at room temperature, and washed again with TBS-T. A four-fold dilution series of the purified 2D-VCAM-1 variants to he assayed was made in COSTAR U-bottom plates in TBS-TMC (TBS with 0.05% Tween-20, 1 mM MnCl2 and 1% casein; Sigma) with a starting concentration of 8.2 uM (200 ug/ml). The dilution, series were transferred into the ELISA plate which was incubated at room temperature for 2 h and subsequently washed with TBS-T. Bound 2D-VCAM-1 protein was detected by incubation with 0.5 ug/ml of biotinylated anti-human VCAM antibody (R&D Systems, Catalog No. BAF809) in TBS-TMC for 1 h at room temperature followed by a TBS-T wash and subsequent incubation with 1:2000 dilution of streptavidin-HRP (BD Biosciences, Catalog No. 554066) in TBS-TMC for 30 min at room temperature. […] Typical development times ranged from 5-15 min and development was stopped by addition of 50 ul 2M H₂SO₄ (EM, Catalog No. SX1244-75). […] Fold-improvement in binding was calculated relative to a control protein (Q38L-2D-VCAM-1) assayed on the same plate.

[5] = biological target: T2, human LPAM-1-Fc (alpha4-Fc/beta7-Fc …); test: SPR (BIACORE) as in Example 12, polypeptide purified from E. coli as analyte on captured LPAM-1-Fc; KD drawn as bars (Example 20)
[6] = biological target: T1, human VLA4-Fc (alpha4-Fc/beta1-Fc …); test: SPR (BIACORE) as in Example 12, polypeptide purified from E. coli as analyte on captured VLA4-Fc; the black bar is broken and the value is written over it (Example 20)
[7] = biological target: T1, human VLA4-Fc (alpha4-Fc/beta1-Fc …); test: SPR (BIACORE), crude CHO-S supernatant on VLA4-Fc

T1 sequence (chain, as listed by the source limits assumed, form in doubt, chain 1 of 2): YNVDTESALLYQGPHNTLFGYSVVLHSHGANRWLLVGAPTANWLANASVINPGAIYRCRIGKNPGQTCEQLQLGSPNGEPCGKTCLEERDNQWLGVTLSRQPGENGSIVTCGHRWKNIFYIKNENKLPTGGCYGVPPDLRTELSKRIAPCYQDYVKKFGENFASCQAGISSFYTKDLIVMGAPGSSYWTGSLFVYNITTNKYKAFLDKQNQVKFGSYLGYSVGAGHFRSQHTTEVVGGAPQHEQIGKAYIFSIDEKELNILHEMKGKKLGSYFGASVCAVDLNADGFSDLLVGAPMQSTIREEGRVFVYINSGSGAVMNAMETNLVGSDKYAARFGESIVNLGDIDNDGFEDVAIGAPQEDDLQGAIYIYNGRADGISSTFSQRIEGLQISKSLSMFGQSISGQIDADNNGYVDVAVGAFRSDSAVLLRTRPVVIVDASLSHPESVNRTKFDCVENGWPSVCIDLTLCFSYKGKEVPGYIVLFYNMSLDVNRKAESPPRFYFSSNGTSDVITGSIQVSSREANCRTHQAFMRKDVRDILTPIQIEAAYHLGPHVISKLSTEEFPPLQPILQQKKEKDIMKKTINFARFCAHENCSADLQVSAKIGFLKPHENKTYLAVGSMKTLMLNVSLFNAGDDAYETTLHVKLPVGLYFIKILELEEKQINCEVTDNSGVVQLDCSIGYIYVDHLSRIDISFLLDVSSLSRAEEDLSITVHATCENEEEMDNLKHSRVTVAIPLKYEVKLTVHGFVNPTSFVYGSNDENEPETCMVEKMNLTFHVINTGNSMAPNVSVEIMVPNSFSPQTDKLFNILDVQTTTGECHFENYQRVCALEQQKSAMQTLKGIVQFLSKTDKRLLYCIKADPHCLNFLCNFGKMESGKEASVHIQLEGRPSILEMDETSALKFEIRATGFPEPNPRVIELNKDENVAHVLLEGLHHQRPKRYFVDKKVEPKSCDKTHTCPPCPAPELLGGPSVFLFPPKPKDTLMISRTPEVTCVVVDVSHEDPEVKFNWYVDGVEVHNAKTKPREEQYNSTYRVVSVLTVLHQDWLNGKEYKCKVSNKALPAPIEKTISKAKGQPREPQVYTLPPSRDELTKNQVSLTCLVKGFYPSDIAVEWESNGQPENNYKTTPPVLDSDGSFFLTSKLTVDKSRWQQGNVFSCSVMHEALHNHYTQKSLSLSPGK
T1 sequence (chain, as listed by the source limits assumed, form in doubt, chain 2 of 2): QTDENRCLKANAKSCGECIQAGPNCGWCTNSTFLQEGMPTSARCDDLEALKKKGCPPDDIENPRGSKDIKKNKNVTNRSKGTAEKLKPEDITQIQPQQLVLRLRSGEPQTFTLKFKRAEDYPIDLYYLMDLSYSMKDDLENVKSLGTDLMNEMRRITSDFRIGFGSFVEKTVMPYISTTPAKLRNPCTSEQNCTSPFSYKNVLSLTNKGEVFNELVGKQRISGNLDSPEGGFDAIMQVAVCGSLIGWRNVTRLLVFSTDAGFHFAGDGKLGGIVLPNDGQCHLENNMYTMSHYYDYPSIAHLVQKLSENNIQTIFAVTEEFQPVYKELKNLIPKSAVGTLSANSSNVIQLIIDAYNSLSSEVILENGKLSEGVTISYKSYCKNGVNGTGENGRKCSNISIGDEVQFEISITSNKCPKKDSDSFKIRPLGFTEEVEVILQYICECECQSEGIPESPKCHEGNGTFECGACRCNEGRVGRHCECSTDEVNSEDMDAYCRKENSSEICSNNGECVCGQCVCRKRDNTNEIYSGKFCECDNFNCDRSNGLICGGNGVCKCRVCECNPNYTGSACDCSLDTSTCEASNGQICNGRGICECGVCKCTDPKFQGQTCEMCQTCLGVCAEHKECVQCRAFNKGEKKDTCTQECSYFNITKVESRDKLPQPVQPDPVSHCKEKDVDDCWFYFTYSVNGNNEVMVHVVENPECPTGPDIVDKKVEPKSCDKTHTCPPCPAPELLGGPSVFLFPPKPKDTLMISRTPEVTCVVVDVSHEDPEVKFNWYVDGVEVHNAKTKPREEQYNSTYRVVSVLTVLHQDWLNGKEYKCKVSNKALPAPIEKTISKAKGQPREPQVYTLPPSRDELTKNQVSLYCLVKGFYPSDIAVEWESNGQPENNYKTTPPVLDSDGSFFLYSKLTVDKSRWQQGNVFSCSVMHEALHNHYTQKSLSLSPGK
T2 sequence (chain, as listed by the source limits assumed, chain 1 of 2): as the sequence (chain, as listed by the source limits assumed, form in doubt, chain 1 of 2) above
T2 sequence (chain, as listed by the source limits assumed, chain 2 of 2): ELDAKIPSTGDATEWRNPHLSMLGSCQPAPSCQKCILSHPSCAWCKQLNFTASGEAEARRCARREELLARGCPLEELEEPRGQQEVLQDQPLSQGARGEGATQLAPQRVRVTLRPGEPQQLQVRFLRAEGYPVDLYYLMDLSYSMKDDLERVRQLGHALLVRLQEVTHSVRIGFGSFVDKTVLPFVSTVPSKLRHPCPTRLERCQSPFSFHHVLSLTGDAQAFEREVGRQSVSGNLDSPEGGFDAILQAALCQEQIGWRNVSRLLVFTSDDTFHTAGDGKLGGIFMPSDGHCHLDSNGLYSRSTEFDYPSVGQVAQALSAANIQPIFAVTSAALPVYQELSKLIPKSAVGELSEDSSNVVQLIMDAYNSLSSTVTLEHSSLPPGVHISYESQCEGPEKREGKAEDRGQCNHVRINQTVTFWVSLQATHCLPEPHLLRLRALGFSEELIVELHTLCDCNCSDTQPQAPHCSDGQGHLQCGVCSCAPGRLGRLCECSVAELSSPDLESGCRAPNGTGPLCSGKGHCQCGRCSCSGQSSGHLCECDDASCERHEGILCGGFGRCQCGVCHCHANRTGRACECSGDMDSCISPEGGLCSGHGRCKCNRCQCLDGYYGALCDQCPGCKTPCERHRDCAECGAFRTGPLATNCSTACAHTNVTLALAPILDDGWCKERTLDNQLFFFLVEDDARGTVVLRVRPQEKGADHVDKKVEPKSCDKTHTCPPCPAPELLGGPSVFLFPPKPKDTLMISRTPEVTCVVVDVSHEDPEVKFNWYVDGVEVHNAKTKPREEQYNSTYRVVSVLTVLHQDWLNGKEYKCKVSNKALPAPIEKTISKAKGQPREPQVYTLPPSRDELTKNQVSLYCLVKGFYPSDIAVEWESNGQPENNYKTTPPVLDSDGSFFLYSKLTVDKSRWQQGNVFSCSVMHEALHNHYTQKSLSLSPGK

B1: human 2D-VCAM-1 (ligand)
chain: FKIETTPESRYLAQIGDSVSLTCSTTGCESPFFSWRTQIDSPLNGKVTNEGTTSTLTMNPVSFGNEHSYLCTATCESRKLEKGIQVEIYSFPKDPEIHLSGPLEAGKPITVKCSVADVYPFDRLEIDLLKGDHLMKSQEFLEDADRKSLETKSLEVTFTPVIEDIGKVLVCRAKLHIDEMDSVPTVRQAVKELQVYISP
notes: also called wild type 2D-VCAM-1; wt-2D-VCAM-1; not shown: His tag
- Kd [1]: 15.2 nM
- binding affinity for VLA4-Fc relative to human 2D-VCAM-1 [1]: 1 fold
- Kd [2]: 248 nM
- binding affinity for LPAM-1-Fc relative to human 2D-VCAM-1 [2]: 1 fold

B2: 2D-VCAM-1 variant Clone 147 (ligand)
chain: B1 chain with F32S, S34Y, T37P, Q38L, I39L, T74A, K79R
notes: not shown: His tag
- fold-improvement in binding relative to Q38L-2D-VCAM-1 [3]: 11 fold
- fold-improvement in binding relative to human 2D-VCAM-1 [3]: 88 fold
- fold improvement in binding relative to Q38L-2D-VCAM-1 [4]: 23 fold

B3: 2D-VCAM-1 variant Clone 150 (ligand)
chain: B1 chain with F32L, S34F, T37P, I39L, S41A, T74R, K79S
notes: not shown: His tag of the E. coli construct
- fold-improvement in binding relative to Q38L-2D-VCAM-1 [3]: 4 fold
- fold-improvement in binding relative to human 2D-VCAM-1 [3]: 32 fold
- fold improvement in binding relative to Q38L-2D-VCAM-1 [4]: 5 fold
- Kd [1]: 0.417 nM
- binding affinity for VLA4-Fc relative to human 2D-VCAM-1 [1]: 36 fold
- Kd [2]: 31.2 nM
- binding affinity for LPAM-1-Fc relative to human 2D-VCAM-1 [2]: 8 fold

B4: 2D-VCAM-1 variant Clone 151 (ligand)
chain: B1 chain with F32S, S34Y, T37P, I39L, S41A, T74A, K79R
notes: not shown: His tag
- fold-improvement in binding relative to Q38L-2D-VCAM-1 [3]: 2 fold
- fold-improvement in binding relative to human 2D-VCAM-1 [3]: 16 fold

B5: R1R7 (ligand)
2D-VCAM-1 variant polypeptide: MFKIETTPESRYLAQIGDSVSLTCSTTGCESPFFFWRPLLDSPLNGKVTNEGTTSTLTMNPVSFGNEHSYLCTARCESRKLEKGIQVEIYSFPKDPEIHLSGPLEAGKPITVKCSVADVYPFDRLEIDLLKGDHLMKSQEFLEDADRKSLETKSLEVTFTPVIEDIGKVLVCRAKLHIDEMDSVPTVRQAVKELQVYISP
notes: also called 146R1R7
- binding result [5]: binds

B6: R1R3 (ligand)
2D-VCAM-1 variant polypeptide: B5 2D-VCAM-1 variant polypeptide with P38T, K80S
notes: also called 146R1R3
- binding result [5]: binds

B7: R1R5 (ligand)
2D-VCAM-1 variant polypeptide: B5 2D-VCAM-1 variant polypeptide with L40I, K80S
notes: also called 146R1R5
- binding result [5]: binds

B8: R1R6R7 (ligand)
2D-VCAM-1 variant polypeptide: B5 2D-VCAM-1 variant polypeptide with R75T
notes: also called 146R1R6R7
- binding result [5]: binds

B9: R3R5R7 (ligand)
2D-VCAM-1 variant polypeptide: B5 2D-VCAM-1 variant polypeptide with F33L, P38T, L40I
notes: also called 146R3R5R7
- binding result [5]: binds
- Kd [6]: 0.25 nM

B10: R3R7 (ligand)
2D-VCAM-1 variant polypeptide: B5 2D-VCAM-1 variant polypeptide with F33L, P38T
notes: also called 146R3R7
- binding result [5]: binds

B11: R5R7 (ligand)
2D-VCAM-1 variant polypeptide: B5 2D-VCAM-1 variant polypeptide with F33L, L40I
notes: also called 146R5R7
- binding result [5]: binds

B12: R6R7 (ligand)
2D-VCAM-1 variant polypeptide: B5 2D-VCAM-1 variant polypeptide with F33L, R75T
notes: also called 146R6R7
- binding result [5]: binds

B13: 146R20 (ligand)
chain: FKIETTPESRYLAQIGDSVSLTCSTTGCESPFFFWRPQIDSPLNGKVTNEGTTSTLTMNPVSFGNEHSYLCTARCESRSLEKGIQVEIYSFPKDPEIHLSGPLEAGKPITVKCSVADVYPFDRLEIDLLKGDHLMKSQEFLEDADRKSLETKSLEVTFTPVIEDIGKVLVCRAKLHIDEMDSVPTVRQAVKELQVYISPGGGSDYKDDDDKGGGSDYKDDDDKGGGSDYKDDDDKGS
notes: Crude CHO-S supernatant, 3x spacer-FLAG tagged
- fold weaker binding relative to 146R0 (KD(variant)/KD(146R0)) [7]: 9.3 fold

B14: 146R21 (ligand)
chain: B13 chain with P37T, Q38L, I39L
notes: Crude CHO-S supernatant, 3x spacer-FLAG tagged; also called I46R21
- fold weaker binding relative to 146R0 (KD(variant)/KD(146R0)) [7]: 1 fold

B15: 146R22 (ligand)
chain: B13 chain with F32L, P37T, Q38L, I39L, S79K
notes: as for B13
- fold weaker binding relative to 146R0 (KD(variant)/KD(146R0)) [7]: 1.6 fold

B16: 146R23 (ligand)
chain: B13 chain with P37T, Q38L, I39L, S79K
notes: as for B13
- fold weaker binding relative to 146R0 (KD(variant)/KD(146R0)) [7]: 6.1 fold
